Assay results published in patent publication US12180519B2, “Cocaine esterase mutant and use thereof” (Hangzhou Normal University, priority 2021, dated 2024).

Columns and labels:
[1] = High-activity CocE mutant accelerated BZE metabolism in vivo (rat blood BZE and BA by HPLC); design: species or system SD rats; details: for BZE metabolism in rats (in words): 0.2 or 1 mg/kg mutant i.v., then 2 mg/kg BZE i.v., FIGS. 3A and 3B
Method: Experimental male SD rats (200 g/rat) purchased from Laboratory Animal Center of Zhejiang Academy of Medical Sciences were raised in a constant-temperature and constant-humidity environment. The feeding and experimental application was carried out by following Guide for the Care and Use of Laboratory Animals.
Blood was collected from the femoral vein of rats using a blood collection needle and a heparin-treated capillary. Firstly, eight tubes of blood from the same rat, 75 μL in each tube, were added to 100 μL of 250 μM paraxon to inhibit the effect of endogenous metabolizing enzymes on BZE, and frozen at −80° C. After thawing, 19.7 μL of mixed solution containing 0, 4, 10, 20, 40, 60, 100 and 200 μM BA and BE standards, then subjected to vortex for 20 seconds, and then added with 150 μL of acetonitrile and subjected to vortex for 1 minutes, then added with 50 μL of 10% HClO4 and subjected to vortex for 1 minutes, centrifuged at 17,000 rcf for 15 minutes, and then centrifuged again after the supernatant was transferred. 250 μL of supernatant were taken out for HPLC analysis. The sample volume was 100 μL, and the HPLC experimental conditions were the same as those in Embodiment 3. The concentrations of BZE and BA in the final standard samples were 0, 0.2, 0.5, 1, 2, 3, 5 and 10 μM respectively.
There were 5 rats in each group. Firstly, 0.2 or 1 mg/kg of high-active CocE mutant or normal saline was injected into the tail vein of rats, and 2 mg/kg BZE was injected into the tail vein within 1 minute. After BZE injection, 75 μL of blood samples were taken at the 0th, 2nd, 5th, 10th, 30th, 60th, 90th and 120th minutes respectively, and 100 μL of 250 μM paraxon were added in each sample, and then frozen at −80° C. After thawing, the samples were subjected to vortex for 20 seconds, then added with 150 μL of acetonitrile and subjected to vortex for 1 minute, then added with 50 μL of 10% HClO4 and subjected to vortex for 1 minute, centrifuged at 17,000 g for 15 minutes, and then centrifuged again after the supernatant was transferred. 250 μL of supernatant were taken out for HPLC analysis. The sample volume was 100 μL. The BA and BZE concentrations in the blood of rats in each group at different time points were calculated according to the blood sample standard curve of the standards, so as to obtain the metabolism of BZE with or without the high-activity CocE mutant.

[2] = in vivo; cited from earlier work
[3] = Enzyme activity analysis: in vitro catalytic reaction of CocE enzymes to substrate BZE (HPLC, Michaelis-Menten); type: biochemical; details: substrate BZE; for Km / kcat: 25° C., 0.1 M phosphate buffer pH 7.4
From the text: Firstly, an experimental method for detecting a substrate BZE and a product benzoic acid BA by HPLC was established. Both BZE and BA had strong ultraviolet absorption at 230 nm. In HPLC analysis, acetonitrile and 0.1% formic acid were used as mobile phases to separate BZE and BA by C18 liquid chromatography column. The absorption of BZE and BA at wavelength 230 nm was detected by an ultraviolet detector, and linear standard curves of BZE and BA were obtained. The activity of BZE reaction catalyzed by CocE was determined, and the reaction temperature was 25° C., with three repetitions in each group. An enzymatic reaction was started by 50 μL of substrate BZE solution with 50 μL of enzyme solution (diluted with 0.1 M phosphate buffer (pH 7.4)).
50 μL of 10% perchloric acid was added to stop the reaction, and then, 50 μL of acetonitrile was added, and the mixture was centrifuged at 12,000 rpm for 5 minutes. Then, the supernatant was diluted to an appropriate multiple and injected into […]. The peak time, peak areas and curves of BZE and BA were compared, and the residual BZE concentration and the BA concentration in the reaction sample were calculated. The kcat and KM of each mutant could be obtained by calculating the reaction rates of BA catalyzed by enzyme at different substrate concentrations, drawing a kinetic curve of the enzyme reaction with GraphPad Prism 8, and performing Michaelis-Menten kinetic analysis.

[4] = rats, 2 mg/kg BZE i.v. without mutant, second minute

Molecule: CN1[C@H]2CC[C@@H]1[C@@H](C(=O)O)[C@@H](OC(=O)c1ccccc1)C2 [BZE, benzoylecgonine, reference compound]
- BA concentration in the blood [1, 4]: less than 0.5 μM
- BZA concentration in the blood [1, 4]: 15.8 µM

Molecule: COC(=O)[C@H]1[C@@H](OC(=O)c2ccccc2)C[C@@H]2CC[C@H]1N2C [cocaine]
- share of cocaine bio-converted by BChE and CE-2 to ecgonine methyl ester (EME) [2]: about 40%
- share of cocaine hydrolyzed by CE-1 in liver to benzoyllecgonine (BZE) [2]: 45%

B1: T172R/G173Q/L196C/I301C/V116K/A51L: cocaine esterase mutant of SEQ ID No. 1 with the named mutations (protein, UniProt Q9L9D7 1-574, looked up, variant T172R G173Q L196C I301C V116K A51L)
Cocaine esterase: MVDGNYSVASNVMVPMRDGVRLAVDLYRPDADGPVPVLLVRNPYDKFDVFLWSTQSTNWLEFVRDGYAVVIQDTRGLFASEGEFVPHVDDEADAEDTLSWILEQAWCDGNVGMFGKSYLGVTQWQAAVSGVGGLKAIAPSMASADLYRAPWYGPGGALSVEALLGWSALIGRQLITSRSDARPEDAADFVQLAAICNDVAGAASVTPLAEQPLLGRLIPWVIDQVVDHPDNDESWQSISLFERLGGLATPALITAGWYDGFVGESLRTFVAVKDNADARLVVGPWSHSNLTGRNADRKFGCAATYPIQEATTMHKAFFDRHLRGETDALAGVPKVRLFVMGIDEWRDETDWPLPDTAYTPFYLGGSGAANTSTGGGTLSTSISGTESADTYLYDPADPVPSLGGTLLFHNGDNGPADQRPIHDRDDVLCYSTEVLTDPVEVTGTVSARLFVSSSAVDTDFTAKLVDVFPDGRAIALCDGIVRMRYRETLVNPTLIEAGEIYEVAIDMLATSNVFLPGHRIMVQVSSSNFPKYDRNSNTGGVIAREQLEEMCTAVNRIHRGPEHPSHIVLPIIKR
- BZE metabolism in rats (in words) [1]: accelerating BZE metabolism
- RCE, ratio of catalytic efficiency of the mutant enzyme to BZE and that of the wildtype enzyme [3]: 536.5
- Km [3]: 27.8 µM
- kcat [3]: 14.6 s⁻¹

B2: T172R/G173Q/V116K: cocaine esterase mutant of SEQ ID No. 1 with the named mutations (protein, UniProt Q9L9D7 1-574, looked up, variant T172R G173Q V116K)
Cocaine esterase: MVDGNYSVASNVMVPMRDGVRLAVDLYRPDADGPVPVLLVRNPYDKFDVFAWSTQSTNWLEFVRDGYAVVIQDTRGLFASEGEFVPHVDDEADAEDTLSWILEQAWCDGNVGMFGKSYLGVTQWQAAVSGVGGLKAIAPSMASADLYRAPWYGPGGALSVEALLGWSALIGRQLITSRSDARPEDAADFVQLAAILNDVAGAASVTPLAEQPLLGRLIPWVIDQVVDHPDNDESWQSISLFERLGGLATPALITAGWYDGFVGESLRTFVAVKDNADARLVVGPWSHSNLTGRNADRKFGIAATYPIQEATTMHKAFFDRHLRGETDALAGVPKVRLFVMGIDEWRDETDWPLPDTAYTPFYLGGSGAANTSTGGGTLSTSISGTESADTYLYDPADPVPSLGGTLLFHNGDNGPADQRPIHDRDDVLCYSTEVLTDPVEVTGTVSARLFVSSSAVDTDFTAKLVDVFPDGRAIALCDGIVRMRYRETLVNPTLIEAGEIYEVAIDMLATSNVFLPGHRIMVQVSSSNFPKYDRNSNTGGVIAREQLEEMCTAVNRIHRGPEHPSHIVLPIIKR
- RCE, ratio of catalytic efficiency of the mutant enzyme to BZE and that of the wildtype enzyme [3]: 110.8
- Km [3]: 65.6 µM
- kcat [3]: 7.087 s⁻¹

B3: T172R/G173Q/L196C/I301C/V116K/A51V: cocaine esterase mutant of SEQ ID No. 1 with the named mutations (protein, UniProt Q9L9D7 1-574, looked up, variant T172R G173Q L196C I301C V116K A51V)
Cocaine esterase: MVDGNYSVASNVMVPMRDGVRLAVDLYRPDADGPVPVLLVRNPYDKFDVFVWSTQSTNWLEFVRDGYAVVIQDTRGLFASEGEFVPHVDDEADAEDTLSWILEQAWCDGNVGMFGKSYLGVTQWQAAVSGVGGLKAIAPSMASADLYRAPWYGPGGALSVEALLGWSALIGRQLITSRSDARPEDAADFVQLAAICNDVAGAASVTPLAEQPLLGRLIPWVIDQVVDHPDNDESWQSISLFERLGGLATPALITAGWYDGFVGESLRTFVAVKDNADARLVVGPWSHSNLTGRNADRKFGCAATYPIQEATTMHKAFFDRHLRGETDALAGVPKVRLFVMGIDEWRDETDWPLPDTAYTPFYLGGSGAANTSTGGGTLSTSISGTESADTYLYDPADPVPSLGGTLLFHNGDNGPADQRPIHDRDDVLCYSTEVLTDPVEVTGTVSARLFVSSSAVDTDFTAKLVDVFPDGRAIALCDGIVRMRYRETLVNPTLIEAGEIYEVAIDMLATSNVFLPGHRIMVQVSSSNFPKYDRNSNTGGVIAREQLEEMCTAVNRIHRGPEHPSHIVLPIIKR
- BZE metabolism in rats (in words) [1]: accelerating BZE metabolism
- RCE, ratio of catalytic efficiency of the mutant enzyme to BZE and that of the wildtype enzyme [3]: 137.6
- Km [3]: 86.2 µM
- kcat [3]: 11.55 s⁻¹

B4: T172R/G173Q: CocE T172R/G173Q mutant that completed the clinical test II phase of cocaine detoxification (protein, listed as Rhodococcus sp.)
chain: MVDGNYSVASNVMVPMRDGVRLAVDLYRPDADGPVPVLLVRNPYDKFDVFAWSTQSTNWLEFVRDGYAVVIQDTRGLFASEGEFVPHVDDEADAEDTLSWILEQAWCDGNVGMFGVSYLGVTQWQAAVSGVGGLKAIAPSMASADLYRAPWYGPGGALSVEALLGWSALIGRQLITSRSDARPEDAADFVQLAAICNDVAGAASVTPLAEQPLLGRLIPWVIDQVVDHPDNDESWQSISLFERLGGLATPALITAGWYDGFVGESLRTFVAVKDNADARLVVGPWSHSNLTGRNADRKFGCAATYPIQEATTMHKAFFDRHLRGETDALAGVPKVRLFVMGIDEWRDETDWPLPDTAYTPFYLGGSGAANTSTGGGTLSTSISGTESADTYLYDPADPVPSLGGTLLFHNGDNGPADQRPIHDRDDVLCYSTEVLTDPVEVTGTVSARLFVSSSAVDTDFTAKLVDVFPDGRAIALCDGIVRMRYRETLVNPTLIEAGEIYEVAIDMLATSNVFLPGHRIMVQVSSSNFPKYDRNSNTGGVIAREQLEEMCTAVNRIHRGPEHPSHIVLPIIKR
- RCE, ratio of catalytic efficiency of the mutant enzyme to BZE and that of the wildtype enzyme [3]: 1.6
- Km [3]: 4360 µM
- kcat [3]: 6.978 s⁻¹
